Test results reported in US20110300138A1 (published 2011).

Columns and labels:
[1] = target: TSH receptor (full length human TSHR) coated on tubes (human) (UniProt P16473); assay: 125I-TSH bound to TSHR coated tubes, in assay buffer
[2] = target: TSH receptor (full length human TSHR) coated on tubes (human) (UniProt P16473); assay: 125I-TSH bound to TSHR coated tubes, in HBD pool serum
[3] = target: TSH receptor (full length human TSHR) coated on tubes (human) (UniProt P16473); assay: 125I-TSH binding inhibition, TSHR coated tubes; 0.25 units/L, in serum
[4] = target: TSH receptor (full length human TSHR) coated on tubes (human) (UniProt P16473); assay: 125I-TSH binding inhibition, TSHR coated tubes; 40.0 units/L, in assay buffer
[5] = target: TSH receptor (full length human TSHR) coated on tubes (human) (UniProt P16473); assay: 125I-TSH binding inhibition, TSHR coated tubes; 0.125 units/L, in serum
[6] = target: TSH receptor (full length human TSHR) coated on tubes (human) (UniProt P16473); assay: 125I-TSH binding inhibition, TSHR coated tubes; 0.25 units/L, in assay buffer
[7] = target: TSH receptor (full length human TSHR) coated on tubes (human) (UniProt P16473); assay: 125I-TSH binding inhibition, TSHR coated tubes; 1.0 units/L, in serum
[8] = target: TSH receptor (full length human TSHR) coated on tubes (human) (UniProt P16473); assay: 125I-TSH binding inhibition, TSHR coated tubes; 40.0 units/L, in serum
[9] = target: TSH receptor (full length human TSHR) coated on tubes (human) (UniProt P16473); assay: 125I-TSH binding inhibition, TSHR coated tubes; 0.5 units/L, in assay buffer
[10] = target: TSH receptor (full length human TSHR) coated on tubes (human) (UniProt P16473); assay: 125I-TSH binding inhibition, TSHR coated tubes; 1.0 units/L, in assay buffer
[11] = target: TSH receptor (full length human TSHR) coated on tubes (human) (UniProt P16473); assay: 125I-TSH binding inhibition, TSHR coated tubes; 2.0 units/L, in assay buffer
[12] = target: TSH receptor (full length human TSHR) coated on tubes (human) (UniProt P16473); assay: 125I-TSH binding inhibition, TSHR coated tubes; 8.0 units/L, in serum
[13] = target: TSH receptor (full length human TSHR) coated on tubes (human) (UniProt P16473); assay: 125I-TSH binding inhibition, TSHR coated tubes; 4.0 units/L, in serum
[14] = target: TSH receptor (full length human TSHR) coated on tubes (human) (UniProt P16473); assay: 125I-TSH binding inhibition, TSHR coated tubes; 8.0 units/L, in assay buffer
[15] = target: TSH receptor (full length human TSHR) coated on tubes (human) (UniProt P16473); assay: 125I-TSH binding inhibition, TSHR coated tubes; 4.0 units/L, in assay buffer
[16] = target: TSH receptor (full length human TSHR) coated on tubes (human) (UniProt P16473); assay: 125I-TSH binding inhibition, TSHR coated tubes; 2.0 units/L, in serum
[17] = target: TSH receptor (full length human TSHR) coated on tubes (human) (UniProt P16473); assay: 125I-TSH binding inhibition, TSHR coated tubes; 0.5 units/L, in serum
[18] = target: TSH receptor (full length human TSHR) coated on tubes (human) (UniProt P16473); assay: 125I-TSH binding inhibition, TSHR coated tubes; 0.125 units/L, in assay buffer

125I-TSH binding (%) [1] [%]	125I-TSH binding (%) [2] [%]	Inhibition of binding (%) [3] [%]	Inhibition of binding (%) [4] [%]	Inhibition of binding (%) [5] [%]	Inhibition of binding (%) [6] [%]	Inhibition of binding (%) [7] [%]	Inhibition of binding (%) [8] [%]	Inhibition of binding (%) [9] [%]	Inhibition of binding (%) [10] [%]	Inhibition of binding (%) [11] [%]	Inhibition of binding (%) [12] [%]	Inhibition of binding (%) [13] [%]	Inhibition of binding (%) [14] [%]	Inhibition of binding (%) [15] [%]	Inhibition of binding (%) [16] [%]	Inhibition of binding (%) [17] [%]	Inhibition of binding (%) [18] [%]	Substance
17.7	16																	125I-TSH (ligand)
		0	91	0	0	8.1	90.9	3.1	14	26.2	65.3	34.8	62.7	49	18.2	5.6	0	WHO reference preparation NIBSC 90/672
